Test results as given in patent US20240294626A1 (Novartis, published 2024).

T1: Recombinant marmoset IL-18 (marmoset, UniProt U3CWC9 37-190)
T1 sequence: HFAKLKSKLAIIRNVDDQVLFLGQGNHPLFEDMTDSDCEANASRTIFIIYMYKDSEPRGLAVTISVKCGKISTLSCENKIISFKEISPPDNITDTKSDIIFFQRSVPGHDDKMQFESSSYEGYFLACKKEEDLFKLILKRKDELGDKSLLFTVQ

B1: mAb2 (antibody, human IgG1, kappa, V domains shown)
VH: QVQLVESGGGVVQPGRSLRLSCAASGFTFSVYGMNWVRQAPGKGLEWVAIIWYDGDNQYYADSVKGRFTISRDNSKNTLYLQMNGLRAEDTAVYYCARDLRTGPFDYWGQGTLVTVSS
VL: EIVLTQSPDFQSVTPKEKVTITCRASQSIGSSLHWYQQKPDQSPKLLIKYASQSFSGVPSRFSGSGSGTDFTLTINSLEAEDAAAYYCHQSSSLPFTFGPGTKVDIKR
notes: Human anti-IL-1β monoclonal antibody, kappa light chain; also called IL-1β antibody
B2: mAb1 (antibody, human IgG1, lambda, L234A L235A, V domains shown)
VH: EVQLVQSGAEVKKPGSSVKVSCKASGGTFKSYAISWVRQAPGQGLEWMGNIIPMTGQTYYAQKFQGRVTITADESTSTAYMELSSLRSEDTAVYYCARAAYHPLVFDNWGQGTLVTVSS
VL: DIVLTQPPSVSGAPGQRVTISCSGSSSNIGNHYVNWYQQLPGTAPKLLIYRNNHRPSGVPDRFSGSKSGTSASLAITGLQSEDEADYYCQSWDYSGFSTVFGGGTKLTVLG
notes: Human anti-IL-18 monoclonal antibody, lambda light chain; also called IL-18 antibody

How the values were obtained:
[1] = molecular target: T2, Recombinant marmoset IL-1β (marmoset, UniProt U3E018 117-268); test: cell-based or functional assay
Recombinant human IL-1β [2] = molecular target: T3, Recombinant human IL-1β (human, UniProt P01584 117-269); test: cell-based or functional assay
Recombinant human IL-18 [3] = molecular target: T4, Recombinant human IL-18 (human, UniProt Q14116 37-193); test: SET, simultaneous target binding Assay B (both targets in serial dilutions in one mix)
T4 construct: also called huIL-18; hulL-18
Protocol: (§1) Assay B: The equilibration process (antibody/antigen mix) was performed with both targets in serial dilutions in one mix simultaneously (constant concentration of antibody 10 pM, highest antigen conc. see above). The same mix was then analyzed for its free antibody concentration on IL18 and IL-1β coated plates as described above.

[4] = molecular target: T1, Recombinant marmoset IL-18; test: cell-based or functional assay
Recombinant human IL-18 [5] = molecular target: T4, Recombinant human IL-18; test: cell-based or functional assay
[6] = molecular target: T2, Recombinant marmoset IL-1β; test: SET, simultaneous target binding Assay B (both targets in serial dilutions in one mix)
Protocol: as §1

Recombinant human IL-1β [7] = molecular target: T3, Recombinant human IL-1β; test: as above
Protocol: as §1

Binder	IC50, inhibition of IL-6 production in human dermal fibroblasts stimulated with recombinant marmoset IL-1β (18 pM), Exp. C [1] [nM]	IC50, inhibition of IL-6 production in marmoset dermal fibroblasts stimulated with recombinant marmoset IL-1β (18 pM), Exp. A [1] [pM]	IC50, inhibition of IL-6 production in marmoset dermal fibroblasts stimulated with recombinant marmoset IL-1β (18 pM), Exp. B [1] [nM]	IC50, inhibition of IL-6 production in human PBMC stimulated with recombinant human IL-1β (60 pM) (Recombinant human IL-1β [2]) [nM]	IC50, inhibition of IL-6 production in human dermal fibroblasts stimulated with recombinant human IL-1β (6 pM) (Recombinant human IL-1β [2]) [pM]	binding result (Recombinant human IL-18 [3])	IC50, inhibition of IFNγ production in human PBMC stimulated with recombinant marmoset IL-18 (1 nM) and human IL-12 (10 ng/ml) [4] [nM]	IC50, inhibition of IFNγ production in marmoset whole blood stimulated with recombinant marmoset IL-18 (0.3 nM) and human IL-12 (10 ng/ml) [4] [nM]	IC50, inhibition of IFNγ production in marmoset whole blood stimulated with recombinant marmoset IL-18 (3 nM) and human IL-12 (10 ng/ml) [4] [nM]	IC50, inhibition of IFNγ production in KG-1 cells stimulated with recombinant human IL-18 (3 nM) and human IL-12 (1 ng/ml) (Recombinant human IL-18 [5]) [nM]	IC50, inhibition of IFNγ production in human PBMC stimulated with recombinant human IL-18 (3 nM) and human IL-12 (1 ng/ml) (Recombinant human IL-18 [5]) [nM]	binding result [6]	binding result (Recombinant human IL-1β [7])
B1	0.114	95	0.138	0.29	31	no binding (tested: highest antigen conc. 5 nM)							
B2							6.6	4.7	181	0.035	0.78	no binding (tested: highest antigen conc. 0.5 nM)	no binding (tested: highest antigen conc. 0.5 nM)
